In the assay the target is T1, Cx47, human (human) (UniProt Q5T442).
T1 sequence: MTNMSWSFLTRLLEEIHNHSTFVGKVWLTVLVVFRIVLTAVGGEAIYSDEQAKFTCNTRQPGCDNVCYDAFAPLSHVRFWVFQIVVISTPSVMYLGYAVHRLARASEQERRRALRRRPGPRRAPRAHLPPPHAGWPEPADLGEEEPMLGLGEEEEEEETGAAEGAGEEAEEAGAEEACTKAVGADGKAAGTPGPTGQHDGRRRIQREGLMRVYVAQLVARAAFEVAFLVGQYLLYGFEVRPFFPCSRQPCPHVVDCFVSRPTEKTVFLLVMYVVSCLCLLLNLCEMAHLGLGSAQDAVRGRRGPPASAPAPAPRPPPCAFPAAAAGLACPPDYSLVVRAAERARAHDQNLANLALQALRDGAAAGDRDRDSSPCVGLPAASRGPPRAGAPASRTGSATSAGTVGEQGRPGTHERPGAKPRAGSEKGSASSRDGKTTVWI

B1: Cx47, human (natural protein)
chain: T1 sequence
On to B1, for which the median junctional conductance (Gj), dual whole-cell patch clamp of DKO HEK293 cell pairs, homotypic; IQR 0.08–7.68; 20 pairs was found to be 1.3 nS.

(Values after publication PMC13269782.)
